Experiment [1] deals with T1, human TNFR2-His tagged protein (soluble) (human, UniProt P20333 23-257).
T1 construct: also called hTNFR2 (soluble); soluble TNFR2-His; not shown: His tag
T1 sequence (looked up): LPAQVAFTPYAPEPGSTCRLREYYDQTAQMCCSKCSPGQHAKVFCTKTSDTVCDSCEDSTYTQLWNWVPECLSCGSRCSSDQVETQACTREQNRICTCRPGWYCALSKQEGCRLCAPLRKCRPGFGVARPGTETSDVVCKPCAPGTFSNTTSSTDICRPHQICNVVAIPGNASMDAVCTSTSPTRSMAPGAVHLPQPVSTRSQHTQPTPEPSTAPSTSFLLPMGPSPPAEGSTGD
Description: ELISA on coated human TNFR2-His. How it is done: (§1) In FIGS. 3A-3B, human (3A) or cynomolgus (3B) TNFR2-His tagged protein was coated on 96-well ELISA plates at 1 μg/mL and incubated overnight at 4° C. Plates were washed and blocked using 1% BSA. Antibodies were added for 1 hour at room temperature (RT), washed, and detected using anti-Human HRP. Assay was developed using TMB substrate for 3-5 minutes. In FIG. 3C, FACS binding was performed on CHO cells that were engineered to express human TNFR2. Briefly, antibodies were incubated with 200,000 cells in MACS buffer for 1 hour followed by wash and detection using anti-human IgG BV421 for 20 minutes. Samples were analyzed using Cytoflex or MACSQuant flow cytometers. In FIG. 3D, ligand blocking ELISA was performed by coating plates with 1 ug/mL TNFR-Fc overnight at 4° C. Plates were washed, blocked and antibodies were incubated for 1 hr at RT. […] Assay was developed using TMB substrate for 5-7 minutes.

Experiment [2] addresses T2, cynomolgus TNFR2-His tagged protein (cynomolgus, UniProt A0A2K5VET2 132-366).
T2 construct: also called Cyno TNFR2; cynomolgus TNFR2 protein; not shown: His tag
T2 sequence: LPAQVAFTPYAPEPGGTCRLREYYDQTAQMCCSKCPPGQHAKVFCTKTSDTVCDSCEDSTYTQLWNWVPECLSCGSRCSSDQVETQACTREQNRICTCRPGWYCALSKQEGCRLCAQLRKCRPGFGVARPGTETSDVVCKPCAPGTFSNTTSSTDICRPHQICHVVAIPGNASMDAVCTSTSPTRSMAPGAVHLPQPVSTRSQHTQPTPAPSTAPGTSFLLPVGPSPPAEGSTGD
Description: ELISA on coated cynomolgus TNFR2-His. How it is done: as §1
On the technique in general: In an ELISA, binding on a coated surface is turned into a signal by an enzyme label.

The next experiment concerns the target T3, TNFR-Fc (UniProt P20333 23-257, limits assumed).
T3 construct: Printed only as TNFR-Fc; not shown: Fc part
T3 sequence (looked up): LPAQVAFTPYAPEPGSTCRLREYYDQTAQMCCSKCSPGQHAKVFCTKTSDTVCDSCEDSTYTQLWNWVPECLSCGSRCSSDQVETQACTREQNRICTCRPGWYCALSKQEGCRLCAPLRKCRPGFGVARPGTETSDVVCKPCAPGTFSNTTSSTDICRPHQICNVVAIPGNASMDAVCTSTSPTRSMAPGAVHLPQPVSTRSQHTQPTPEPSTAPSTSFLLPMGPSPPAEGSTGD
Description: TNF-α blocking ELISA on coated TNFR-Fc. How it is done:
as §1

For experiment [3], the target named is T4, human TNFR2 expressed on cells (human, UniProt P20333 23-461).
T4 construct: whole, on cells; also called hTNFR2 (cell); CHO-TNFR2
T4 sequence (looked up): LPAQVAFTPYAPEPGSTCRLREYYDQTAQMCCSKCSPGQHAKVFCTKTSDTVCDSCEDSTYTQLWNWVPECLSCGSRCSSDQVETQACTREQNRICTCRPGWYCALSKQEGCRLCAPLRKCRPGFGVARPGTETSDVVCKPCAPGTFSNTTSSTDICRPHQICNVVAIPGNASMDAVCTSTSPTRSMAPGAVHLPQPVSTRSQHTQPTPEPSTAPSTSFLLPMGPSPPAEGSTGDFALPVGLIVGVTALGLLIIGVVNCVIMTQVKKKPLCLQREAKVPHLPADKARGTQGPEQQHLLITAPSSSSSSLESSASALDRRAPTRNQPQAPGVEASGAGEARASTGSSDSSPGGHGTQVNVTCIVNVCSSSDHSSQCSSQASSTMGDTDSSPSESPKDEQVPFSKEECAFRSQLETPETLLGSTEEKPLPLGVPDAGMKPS
Description: flow cytometry on CHO cells expressing human TNFR2. How it is done:
as §1

A further experiment has as its target T5, soluble mouse TNFR2 (mouse, UniProt P25119 23-258, limits assumed).
T5 sequence (looked up): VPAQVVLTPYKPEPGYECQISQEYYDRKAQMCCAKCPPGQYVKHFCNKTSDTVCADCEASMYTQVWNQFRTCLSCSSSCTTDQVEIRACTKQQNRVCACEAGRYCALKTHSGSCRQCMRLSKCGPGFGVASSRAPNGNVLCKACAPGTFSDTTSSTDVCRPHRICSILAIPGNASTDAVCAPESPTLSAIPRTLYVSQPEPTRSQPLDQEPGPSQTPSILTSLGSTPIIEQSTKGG
Nature of the experiment: binding screen on soluble mouse TNFR2 (mouse cross-reactivity).

B1: chimeric antibody clone 11D7.1 (rab600_23_11D7.1) (antibody, V domains shown)
VH: QEQLEESGGGLVQPGGSLKLSCKASGFDFSRYYMSWVRQAPGKGLEWIGYIDPIFGNTYYASWVNGRFTISSHNAQNTLYLQLNNLTAADTATYFCARDGDAGYDGYGYGTDLWGPGTLVTVSS
VL: QVLTQTPSSVSEPVGGTVTINCQASENIYSGLAWYQQKPGQPPKLLIVSAFTLASGVPSRFKGSGTGTEFTLTISGVQCDDAATYYCQTYYYGSVTYFNAFGGGTEVVVK
notes: also called rab600_23_HD7.1
Broadly, the EC50 is the concentration needed to bring the measured effect to its halfway point. Higher therefore signals weaker potency. A word on the IC50: it is the point on the concentration scale where inhibition reaches its midpoint. Turning to B1, the values for the concentration giving a half-maximal response (EC50) in experiment [1], in experiment [2] and in experiment [3] were 0.14 nM, 0.0396 nM and 0.17 nM, respectively. Inhibition with TNFR-Fc was half-maximal at 6.09 nM (IC50). Further, the binding result with soluble mouse TNFR2 was “no binding”.

B2: chimeric antibody clone 108 (taken as rab600_25_108) (antibody, V domains shown)
VH: QSVEESGGRLVTPGTPLTLTCKASGFSLSDYFMTWVRQAPGKGLEWIGIINTGGDSYYATWAKGRFTISKTSTTVDLKISSPTTEDTATYFCARDTGYGGYDYAGSFDPWGPGTLVTVSS
VL: AIKMTQTPASVSEPVGGTVTIKCQASENINSWLAWYQQKPGQPPKLLIYEASKLASGVPSRFKGSGSGTQFTLTISDLECADAATYYCQQGYIYIDVGNIFGGGTEVVVK
With B2, the EC50 came to 0.256 nM in experiment [1], 0.327 nM in experiment [2] and 0.18 nM in experiment [3]. Further, in the experiment with TNFR-Fc, the IC50 was 4.55 nM. For the same molecule, in the experiment with soluble mouse TNFR2, the binding result is “no binding”.

B3: chimeric antibody clone 57 (rab600_23_57) (antibody, V domains shown)
VH: QSVEESGGRLVTPGTPLTLTCTVSGFSLSSYAMGWVRQAPGKGLEWIGIIGSGGNTYYATWAKGRFTISRTSTTVDLRITSPTTEDTATYFCARDVGYGDYDALDLWGQGTLVTVSS
VL: DVVMTQTPSSVSEPVGGTVTIKCQASEEISSNLAWYQQKPGQPPKLLMYAASNLASGVSSRLKGSRSGTDYTLTISGVQCDDAATYFCQCTYIGSGYVVAFGGGTEVVVK
In the case of B3, the EC50 amounted to 0.067 nM in experiment [1], 0.057 nM in experiment [2] and 0.073 nM in experiment [3]. In the experiment with TNFR-Fc, this molecule showed an IC50 of 0.741 nM. For the same molecule, the binding result with soluble mouse TNFR2 is “no binding”.

B4: chimeric antibody clone 4 (rab600_23_4) (antibody, V domains shown)
VH: QSVEESGGRLVTPGTPLTLTCTVSGIDLSSYTMGWVRQAPGKGLEYIGFISSSGHTYYANWAKGRFTISKTSSTTVDLKMTSLTTEDTATYFCARDGGYGGYDYTGIFNLWGQGTLVTVSS
VL: DIVMTQTASPVSAAVGGTVTIKCQATESISSWLAWYQQKPGQPPKLLIYGASTLESGVPSRFSGSGSGTEFTLTISGVQCDDAATYYCQQGYIYTNVDNTFGGGTEVVVK
Consider B4, for which the EC50 in experiment [1] is 0.094 nM; in experiment [2], 0.099 nM; in experiment [3], 0.147 nM. Moreover, in the experiment with TNFR-Fc, half-maximal inhibition (IC50) was put at 2.74 nM. Besides, the binding result in the experiment with soluble mouse TNFR2 was “no binding”.

B5: chimeric antibody clone 37 (rab600_25_37) (antibody, V domains shown)
VH: QSVEESGGRLVTPGTPLILTCTVSGIDLSNYAMGWFRQAPGEGLEWIGSRRTDGITYYANWAEGRFTISRTSTTVDLEITSPTTEDTATYFCGRDVGGDGGWYFNLWGPGTLVTVSS
VL: AGDMTQTPASVEVAVGGTVTIKCQASQSINIYLAWYQQKPGQPPKLLIYDASKLASGVPSRFSGSGSGTEFTLTISDLECADAATYYCQQGINNIGFGGGTEVVVK
For B5, the concentration for a half-maximal effect (EC50) was 0.126 nM in experiment [1], 0.148 nM in experiment [2] and 0.1 nM in experiment [3]. In the experiment with TNFR-Fc, this molecule had an IC50 of 3.25 nM. For the same molecule, in the experiment with soluble mouse TNFR2, the binding result was “no binding”.

B6: chimeric antibody clone 127 (rab600_23_127) (antibody, V domains shown)
VH: QEQLEESGGDLVKPEGSLTLTCTASGFDFSVNAMCWVRQAPGKGPEWIAYISNADGSTHYASWVNGRFTISRSTSLNTVTLQMTRLTVSDTATYFCARAPYAGYTGYGYLNLWGPGTLVTVSS
VL: DVVMTQTPASVSGPVGGTVTIKCQASQNIDSDLAWYQQKPGQRPKLLIYDASKLASGVPSRFSGSGYGTEFTLTISGVQCEDAATYYCQYTYYINTYGGAFGGGTEVVVK
Turning to B6, the EC50 is 0.313 nM in experiment [1], 60 nM in experiment [2] and 0.11 nM in experiment [3]. Moreover, it took 6.62 nM to reach half-maximal inhibition with TNFR-Fc (IC50). For the same molecule, in the experiment with soluble mouse TNFR2, the binding result was “no binding”.

B7: chimeric antibody clone 107 (rab600_23_107) (antibody, V domains shown)
VH: QSVEESGGRLVTPGTPLTLTCTVSGFSLSSNAISWVRQAPGKGLEWIGIINTYDNTAYATWAKGRFSISRTSTTVDLKITSPATKDTATYFCARDVHNNVVPYYFDMWGQGTLVTVSS
VL: AYDMTQTPATVEVAVGGTVTINCQASQSISNLLAWYQQKPGQRPKLLIYDTSDLASGVPSRFSGSGSGTEYTLTITGVECADAATYYCQQGYSSSNIDNVFGGGTEVVVK
Take B7: the EC50 in experiment [1] turned out to be 0.325 nM; in experiment [2], 0.315 nM; in experiment [3], 0.485 nM. In the experiment with TNFR-Fc, the midpoint of inhibition, the IC50, lay at 2.22 nM. In the experiment with soluble mouse TNFR2, the binding result is “no binding”.

B8: chimeric antibody clone 102 (rab600_23_102) (antibody, V domains shown)
VH: QSVEESGGRLVTPGTPLTLTCTASGFSLSTYDMIWVRQAPGKGLEWIGYIWSDGITDYASWAKGRFTISKTSTTVDLKVTSPTTEDTATYFCARDVGYAGYGYYFDLWGQGTLVTVSS
VL: ALVMTQTPASVEVAVGGTVTIKCQASQSITNYLAWYRQKPGQPPKLLIYGASKLASGVPSRFSGSGSGTEYTLTISGVQCDDAATYYCQQGYTSSNVDNPFGGGTEVVVK
As for B8, the figures for the half-maximal effective concentration (EC50) in experiment [1], in experiment [2] and in experiment [3] were 0.207 nM, 0.327 nM and 0.0901 nM, respectively. Moreover, half-maximal inhibition in the experiment with TNFR-Fc (IC50) was put at 100 nM. In addition, in the experiment with soluble mouse TNFR2, the binding result is on record as “no binding”.

B9: chimeric antibody clone 42 (rab600_25_42) (antibody, V domains shown)
VH: QSLEESGGRLVTPGTPLTLTCTVSGIDLSTYAMIWVRQAPGKGLEYIGFIRPGGSAWYASWAKGRFTISKTSTTVDREITSPTTEDTATYFCATYDTYGYGDTRLWGPGTLVTVSS
VL: AYDMTQTPASVEVAVGGTVTIKCQASESIFSYLAWYQQKPGQRPKLLIYYASTLASGVPSRFKGSGSGTQFTLTISGVECADAATYYCQQGYDFSAVDNVFGGGTEVVVK
B9: the EC50 in experiment [1] was found to be 0.242 nM; in experiment [2] it was 0.184 nM; in experiment [3] it was 0.091 nM. Besides, in the experiment with TNFR-Fc, the half-maximal inhibitory concentration (IC50) was determined as 11.2 nM. Further, in the experiment with soluble mouse TNFR2, the binding result is “no binding”.

B10: chimeric antibody clone 92 (rab600_25_92) (antibody, V domains shown)
VH: QSVEESGGRLVKPDETLTLICTVSGFSLSSHHMIWVRQAPGEGLEGIGIIDAGSGSTYYASWAKGRFTISRTSTTVDLKIASPTTEDTATYFCARGGLTESLGTYFDLWGPGTLVTVSS
VL: DIVMTQTPASVEAAVGGTVTIKCQASESIDSGLAWYQQKPGQRPKLLIYDSSTLASGVPSRFKGSGSGTDFTLTISDLECADAATYYCQSNYDTGSSVYDWGSFGGGTEVVVK
Regarding B10, the EC50 in experiment [1] stood at 0.131 nM; in experiment [2], 0.191 nM; in experiment [3], 0.086 nM. In the experiment with TNFR-Fc, this molecule registered a half-inhibitory concentration (IC50) of 3.06 nM. In addition, in the experiment with soluble mouse TNFR2, the binding result is given as “no binding”.

The values are drawn from patent US20220372154A1 (APEXIGEN, published 2022).
